Results: US20150330981A1 (published 2015)

Key:
[1] = molecular target: T1, GST-PGC-1β (1-367 aa; GST-P5) (UniProt Q8VHJ7)
T1 sequence: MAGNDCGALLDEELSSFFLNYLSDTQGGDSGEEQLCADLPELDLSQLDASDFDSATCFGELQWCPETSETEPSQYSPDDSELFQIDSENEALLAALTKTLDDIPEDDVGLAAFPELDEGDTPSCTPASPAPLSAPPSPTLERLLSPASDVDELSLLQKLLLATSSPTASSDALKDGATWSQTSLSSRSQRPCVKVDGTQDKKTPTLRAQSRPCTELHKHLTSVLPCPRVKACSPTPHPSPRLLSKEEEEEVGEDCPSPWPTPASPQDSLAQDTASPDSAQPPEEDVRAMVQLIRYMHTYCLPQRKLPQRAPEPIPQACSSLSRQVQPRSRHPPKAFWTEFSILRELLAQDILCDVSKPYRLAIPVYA

[2] = molecular target: T2, in vitro transcribed/translated PGC-1β (FLAG-PGC), Q8VHJ7
T2 chain: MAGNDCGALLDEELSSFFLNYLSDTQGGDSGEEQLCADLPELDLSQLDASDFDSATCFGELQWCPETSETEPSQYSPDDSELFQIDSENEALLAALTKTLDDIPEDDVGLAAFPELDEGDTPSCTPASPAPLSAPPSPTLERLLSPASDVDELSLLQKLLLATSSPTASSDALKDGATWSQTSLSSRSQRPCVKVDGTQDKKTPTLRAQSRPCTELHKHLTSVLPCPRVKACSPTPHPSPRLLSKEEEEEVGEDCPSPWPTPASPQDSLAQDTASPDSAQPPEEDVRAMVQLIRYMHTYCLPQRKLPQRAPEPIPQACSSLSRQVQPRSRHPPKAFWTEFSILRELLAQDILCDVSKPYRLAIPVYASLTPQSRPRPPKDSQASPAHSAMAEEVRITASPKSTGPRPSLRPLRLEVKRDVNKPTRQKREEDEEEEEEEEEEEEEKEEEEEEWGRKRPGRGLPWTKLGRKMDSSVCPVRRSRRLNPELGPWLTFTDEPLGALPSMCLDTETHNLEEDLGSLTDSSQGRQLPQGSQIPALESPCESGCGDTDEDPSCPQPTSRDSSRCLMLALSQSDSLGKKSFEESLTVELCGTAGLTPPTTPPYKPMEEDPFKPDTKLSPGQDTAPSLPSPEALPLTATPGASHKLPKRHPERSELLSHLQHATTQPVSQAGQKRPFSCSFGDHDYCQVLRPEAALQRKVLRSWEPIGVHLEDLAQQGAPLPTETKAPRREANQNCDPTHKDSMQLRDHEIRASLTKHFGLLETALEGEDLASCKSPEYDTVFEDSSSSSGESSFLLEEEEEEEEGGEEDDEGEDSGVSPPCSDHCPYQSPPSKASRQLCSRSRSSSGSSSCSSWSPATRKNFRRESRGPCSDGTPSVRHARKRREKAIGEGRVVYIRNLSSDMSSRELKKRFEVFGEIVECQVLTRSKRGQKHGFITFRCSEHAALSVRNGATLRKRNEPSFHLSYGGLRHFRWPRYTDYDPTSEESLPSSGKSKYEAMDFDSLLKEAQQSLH

[3] = molecular target: T3, HA PGC-1β (full-length mouse PGC-1β with HA tag), Q8VHJ7
T3 chain: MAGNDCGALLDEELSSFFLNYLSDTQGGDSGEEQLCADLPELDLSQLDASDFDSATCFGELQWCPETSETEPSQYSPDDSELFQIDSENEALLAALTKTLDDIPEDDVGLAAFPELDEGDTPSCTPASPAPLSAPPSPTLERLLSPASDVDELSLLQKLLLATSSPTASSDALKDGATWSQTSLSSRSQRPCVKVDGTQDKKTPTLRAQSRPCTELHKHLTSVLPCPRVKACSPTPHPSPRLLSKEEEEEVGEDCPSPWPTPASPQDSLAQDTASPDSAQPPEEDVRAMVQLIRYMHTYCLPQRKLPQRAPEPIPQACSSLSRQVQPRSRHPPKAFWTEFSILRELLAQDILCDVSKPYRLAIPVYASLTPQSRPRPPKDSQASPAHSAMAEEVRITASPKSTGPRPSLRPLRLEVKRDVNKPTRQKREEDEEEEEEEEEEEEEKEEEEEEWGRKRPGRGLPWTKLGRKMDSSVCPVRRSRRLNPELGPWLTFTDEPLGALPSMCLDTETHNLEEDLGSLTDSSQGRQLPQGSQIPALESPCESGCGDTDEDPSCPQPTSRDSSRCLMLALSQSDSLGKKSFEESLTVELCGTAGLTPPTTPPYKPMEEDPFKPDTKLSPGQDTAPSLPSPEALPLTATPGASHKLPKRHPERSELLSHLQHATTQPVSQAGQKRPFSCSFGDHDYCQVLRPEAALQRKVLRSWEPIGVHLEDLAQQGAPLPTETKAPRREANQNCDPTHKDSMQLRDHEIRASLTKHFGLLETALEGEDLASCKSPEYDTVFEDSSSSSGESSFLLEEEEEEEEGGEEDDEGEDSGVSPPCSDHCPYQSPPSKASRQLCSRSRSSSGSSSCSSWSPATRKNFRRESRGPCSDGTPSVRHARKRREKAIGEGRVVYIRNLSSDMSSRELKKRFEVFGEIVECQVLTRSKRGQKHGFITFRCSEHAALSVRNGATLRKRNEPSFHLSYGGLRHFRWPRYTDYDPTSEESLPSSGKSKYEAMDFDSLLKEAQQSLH

[4] = molecular target: T4, HA PGC-1β (full-length mouse PGC-1β with HA tag) (mouse, UniProt Q8VHJ7 1-1014); test: cell-based or functional assay
T4 sequence (looked up): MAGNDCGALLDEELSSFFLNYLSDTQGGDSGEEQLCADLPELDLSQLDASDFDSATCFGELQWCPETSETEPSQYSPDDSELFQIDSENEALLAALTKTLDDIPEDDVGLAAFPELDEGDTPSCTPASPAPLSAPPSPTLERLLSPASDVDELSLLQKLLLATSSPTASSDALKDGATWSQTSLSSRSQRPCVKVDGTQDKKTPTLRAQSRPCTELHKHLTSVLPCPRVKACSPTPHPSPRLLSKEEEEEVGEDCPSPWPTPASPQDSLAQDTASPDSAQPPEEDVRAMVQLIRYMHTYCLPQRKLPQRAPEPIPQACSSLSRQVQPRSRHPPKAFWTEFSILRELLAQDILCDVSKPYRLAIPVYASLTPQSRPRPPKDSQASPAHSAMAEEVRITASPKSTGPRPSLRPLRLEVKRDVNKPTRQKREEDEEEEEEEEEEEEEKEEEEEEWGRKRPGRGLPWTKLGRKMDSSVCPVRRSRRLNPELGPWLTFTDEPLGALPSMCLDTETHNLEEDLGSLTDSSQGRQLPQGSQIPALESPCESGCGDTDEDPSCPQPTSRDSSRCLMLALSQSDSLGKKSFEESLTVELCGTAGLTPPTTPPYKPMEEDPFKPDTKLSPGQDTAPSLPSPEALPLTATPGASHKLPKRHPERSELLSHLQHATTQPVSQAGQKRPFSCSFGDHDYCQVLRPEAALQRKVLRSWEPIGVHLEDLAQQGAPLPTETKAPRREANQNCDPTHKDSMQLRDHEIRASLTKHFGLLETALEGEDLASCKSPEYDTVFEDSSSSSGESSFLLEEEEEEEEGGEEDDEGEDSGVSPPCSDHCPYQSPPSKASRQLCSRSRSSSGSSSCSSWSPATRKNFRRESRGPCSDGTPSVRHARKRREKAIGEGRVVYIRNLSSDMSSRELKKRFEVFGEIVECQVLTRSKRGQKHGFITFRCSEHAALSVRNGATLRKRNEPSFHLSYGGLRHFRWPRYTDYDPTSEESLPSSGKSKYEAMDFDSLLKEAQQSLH

[5] = molecular target: T4, HA PGC-1β (full-length mouse PGC-1β …); test: co-immunoprecipitation with anti-FLAG from HEK-293T extract, anti-HA Western blot
Method: Whether synoviolin and PGC-1β actually form a complex in in vivo was investigated. Specifically, a plasmid for expressing PGC-1β with HA tag (HA PGC-1β) and a plasmid for expressing synoviolin with FLAG tag (SYVN1/FLAG) or the modified synoviolin with FLAG tag (SYVN1ΔSyU/FLAG) were transfected in HEK-293T cells. Whole cell extract from the HEK-293T cells transfected with the expression plasmids was prepared to immunoprecipitate using anti-FLAG antibody. Proteins bound to the anti-FLAG antibody were eluted and separated by SDS-PAGE, and Western blot was performed using anti-HA antibody and the anti-FLAG antibody.

Q: MBP-SYVN1 ΔTM-His was tested. Which “in vitro ubiquitination assay (E1-His, UbcH5C, HA-ubiquitin; GST capture, Western blot)” value [1] did it give?
A: Its value is “synoviolin (SYVN1) has directly ubiquitinated PGC-1β”.

B1: modified synoviolin fused to GST (syno(236-338)) (protein)
chain: KVHTFPLFAIRPMYLAMRQFKKAVTDAIMSRRAIRNMNTLYPDATPEELQAMDNVCIICREEMVTGAKRLPCNHIFHTSCLRSWFQRQQTCPTCRMDVLRASL
Q: With B1 as the molecule, how does the “in vitro ubiquitination assay” value [2] read?
A: The value was “polyubiquitinated PGC-1β was detected under the condition with the presence of all of ATP, PK-His-HA-Ub, E1-His, UBE2G2-His, and syno(236-338)”.

B2: modified synoviolin with FLAG tag (SYVN1ΔSyU/FLAG) (enzyme, UniProt Q86TM6 1-617, looked up)
chain: MFRTAVMMAASLALTGAVVAHAYYLKHQFYPTVVYLTKSSPSMAVLYIQAFVLVFLLGKVMGKVFFGQLRAAEMEHLLERSWYAVTETCLAFTVFRDDFSPRFVALFTLLLFLKCFHWLAEDRVDFMERSPNISWLFHCRIVSLMFLLGILDFLFVSHAYHSILTRGASVQLVFGFEYAILMTMVLTIFIKYVLHSVDLQSENPWDNKAVYMLYTELFTGFIKVLLYMAFMTIMINMNTLYPDATPEELQAMDNVCIICREEMVTGAKRLPCNHIFHTSCLRSWFQRQQTCPTCRMDVLRASLPAQSPPPPEPADQGPPPAPHPPPLLPQPPNFPQGLLPPFPPGMFPLWPPMGPFPPVPPPPSSGEAVAPPSTSAAALSRPSGAATTTAAGTSATAASATASGPGSGSAPEAGPAPGFPFPPPWMGMPLPPPFAFPPMPVPPAGFAGLTPEELRALEGHERQHLEARLQSLRNIHTLLDAAMLQINQYLTVLASLGPPRPATSVNSTEETATTVVAAASSTSIPSSEATTPTPGASPPAPEMERPPAPESVGTEEMPEDGEPDAAELRRRRLQKLESPVAH
notes: Deletion construct expressed in cells; also called synoviolin ΔSyU/FLAG; Synoviolin ASyU/FLAG; not shown: FLAG tag
Q: How did the “half-life of PGC-1β (cycloheximide chase, MEF Syno-/-)” value [3] turn out when B2 was run?
A: The value was “SYVN1 ΔSyU has not so promoted degradation of PGC-1β”.

Q: What about the “half-life of PGC-1β in cells (cycloheximide chase, Western blot)” value [4] of the same molecule?
A: The value was 3.6 h.

Q: Does B2 bind [5]?
A: Result: no binding
